From the nanobody polyreactivity screen of Harvey et al. (2022)

Experiment: yeast display, Sf9 membrane polyspecificity reagent, FACS + sequencing; frameworks hold sequencing errors
In short: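 Galactose-induced (36–48 hours) yeast carrying a synthetic nanobody display library were exposed to 10% biotinylated, detergent-solubilized Sf9 membrane reagent at 4 °C for 1 hour. FACS followed streptavidin microbead enrichment, using low and high (top ~1%) gates for expression (anti-HA) and reagent binding (streptavidin). Colony PCR, MiSeq 2 × 250 sequencing and CDR-length filtering followed. Labels for polyreactivity reflect the gate of origin.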

Sequence | polyreactivity (PSR sort gate)
QVQLLESGGGLVQAGGSLRLSCAASGNTFSYYTMGWYRPAPGKERELVAAISASGGSTYYADSVKGRFTISRDNAKNTVYIQMNSLKQEDTAVYYCAASFYIERHRYNYWGHGTQVTVSS | high polyreactivity
QVQLLESGGGLVQAGGSLRLSCAASGNTYPVNARGWYRQAPGKERDLVAAISRTGASTYYADSVKGRFTISRDNAKNTVYLQMNSLIPEDTAVYYCAKYLKTPHNRRRVEALGYWGQGTQVTVSS | high polyreactivity
QVQLLESGGGLVQAGGSLRLSCAASGRIFNYNAMGWYRQAPGKERELVAAISWDGGSTYYADSVKGRFTISRDNAKNTVYLQMNSLKPEDTAVYYCAARGGSRRFQSQAYSLPRYDYWGQGTQVTVSS | high polyreactivity
QVQLLESGGGLVQAGGSLRLSCAASGRIFRRYAMGWYRQAPGKEREFVAAITKSGGSTYYADSVKGRFTISRDNAKNTVYLQMNSLKPEDTAVYYCATYPQYYFRYDYWGQGTQVTVSS | high polyreactivity
QVQLLESGGGLVQAGGSLRLSCAASGRNFGVNAMGWYRQAPGKERELVAVISSGGSTYYADSVKGRFTISRDNAKNTVFLQMNSLKPEDTAVYYCAAGNLPDYDYWGQGTQVTVSS | low polyreactivity
QVQLLESGGGLVQAGGSLRLSCAASGRNFSRYAMGWYRQAPGKERELVAGITRSGTTTYYADSVKGRFTISRDNAKNTVYLQMNSLKPEDTAVYYCAAPPIRPNLYDYWGQGTQVTVSS | high polyreactivity
QVQLLESGGGLVQAGGSLRLSCAASGRSYCNNVMGWYRQEPGKERELVAAITFSGTSTYYADSVKVRFTISRDNAKNTVYLQMNSLKPEDTAVYYCAKYRYADYYSPCYDYWGQGTQVTVSS | low polyreactivity
QVQLLESGGGLVQAGGSLRLSCAASGRTCRWYAMGWYTQAPWKERELVAAISSSTASTYYADSVKGRFTISRDYAKITVYLQMNSLKPEDSAVYYCAKYYYRFPVCYDYWGLGTQVTVSS | high polyreactivity
QVQLLESGGGLVQAGGSLRLSCAASGRTFRRYAMGWYRQAPGKERELVAAISYSGTTTYYADSVKGRFTISRDNAKNTVYLQMNSLKPEDTAVYYCNKATAYGLDYWGQGTQVTVSS | high polyreactivity
QVQLLESGGGLVQAGGSLRLSCAASGRTFRVYARGWYRQAPGKEREFVATISVRGGSTYYAYSVKGRFTISRDNAKITVYLQMNSLKPVDTAVYYCARSSRGNLDYWGQGTQVSVSS | low polyreactivity
QVQLLESGGGLVQAGGSLRLSCAASGRTFRYYTMGWYRQAPGKEREFVDAISSTGGTYYADSVKGRFTISRDNAKNTVYLQMNCLKPEDTAVYYCAATFIQVVVNVQLYDYDYWGQGTQVTVSS | low polyreactivity
QVQLLESGGGLVQAGGSLRLSCAASGRTFTGYVMGWYRQATGKERELVAGISRRGGRTYYADSVKGRFTISRDNAKNTVYLQMNSLKPEDTAVYYCAAAVTSSDPYDYWGQGTQVTVSS | high polyreactivity
QVQLLESGGGLVQAGGSLRLSCAASGRTFTSNVMGWYRQAPGKERELVAAISSSGGRTYYADSVKGRFTISRDNAKNTVYLLMNSLKPEDTAVYSCAADGYPEYPRYGYWGQGTQVTVSS | high polyreactivity
QVQLLESGGGLVQAGGSLRLSCAASGSIFDGYGMGWYRQAPGKERELVAGITSGGSTYYADSVKGRFTISRDTAKNTVYLQMNSLKPEDTAVYYCATVVRYSNARGDYWGQGTQVTVSS | low polyreactivity
QVQLLESGGGLVQAGGSLRLSCAASGSIFYPYAMGWHRQAPGKERELVAAISYSGGSTYYADSVKGSFTISRDNAKNTVYLQMNSLKPEDSAVYYCAASVFRGSATYDSWGQGTHVTVSS | high polyreactivity
QVQLLESGGGLVQAGGSLRLSCAASGSNFSSYAMGWSRQAPGTERELVASISRRGGSTYYADSVKGRFTISRDNAKNTVYLQMNSLKPEDTAVYYCNASGGPYRYYYWGQGTQVTVSS | low polyreactivity
QVQLLESGGGLVQAGGSLRLSCAASGSTFSYNAMGWYIQAPGKERELVAAIDRSVSTNYADSVKGRFTISRDNAKNTVYLQMNSLKPEDTEVYYCNARHPTDDIVIYDYWGQGTQVTVSS | low polyreactivity
QVQLLESGGGLVQAGGSLRLSCAASGSTFTNYAMGWYRQAPGKERELVAAITSGGSTYYADSVKGRCTISRDNAKNTVYLQMNSLKPEDTAVYYCNAVYFSEYDSWGQGTLVTVSS | low polyreactivity
QVQLLESGGGLVQAGGSLRLSCAASGSTYSRYDMGWYRPAPGKERELVAAISRSGGSTYYADSVKGRFTISRDNAKNTVYLQMNSLKPEDTAGYYCAAYLPYRQGRYGYEYWGQGTQVNVSS | high polyreactivity
QVQLLESGGGLVQAGGSLRLSCAASRRIIYGYAMGWYRQAPGKERELVAAITATYYADSVKGRFTISRDNPKNTVYLLMNSLKAVDTAVYYCNAYLSPKQPLSPQDPTFEGGYWGQCTQVTVSS | low polyreactivity
QVQLLESGGGLVQAGGSLRLSCASSGFTFGWYAMGWYRPAPGKERDLVAAISYSGGSTYYADSVKGRFTISRDNAKNTVYLQMNSLKPEDTAVYYCAAKARRPYSYHPYDYWGQGTQVTVSS | high polyreactivity
QVQLLESGGGLVQAGGSLRLSCASSGYTIIQYAMGWYRQAPGKERELVAGNTWSGGSTYADSVKGRFTISRDNAKNTVYLQMKSLKQEDTAVYYCAADQEPGKYRFPYARKNNYWGQGTQVTVSS | low polyreactivity

Sequence | polyreactivity (PSR sort gate)
QVQLLESGGGLVQAGGSLRLSCDASGSISYHNAMGWYRQAPGKERELVASITSGSSTYYADSVKGSFTISRDNAKNTVYLQMNSLKPEDTAVYYCAAQDYSPYERGRDYWGQGTQVTVSS | low polyreactivity
QVQLLESGGGLVQAGGSLRLSCPASGRIFGSYAMRSYRKAPGKERDFVAAISRTGGSTYYADSVKGRFTISRDNAKNTVYLQFTSLKPEDTAVYYCAASYRWRFVRGYYWGQGTQVNVSS | high polyreactivity
QVQLLESGGGLVQAGGSLRLSCVASGGILSSNAMGWYRQAPGKERELVAAISSGGSTNYADSVKGRFTISRDNAKNTVYLQMNSLKPDDTAVYYCAADSKIGSFDSWGQGTQVNVSS | low polyreactivity
QVQLLESGGGLVQAGGSLRLTCAASGRIFAYYAMAWYRQAPGKERELVAAITSGGSTYYADSVKGRFTISRDNAKNTVYLQMNILKPEDTAVYYCNAGYGQWSRGHWRLSSVPYYYWGQGTQVTVSS | high polyreactivity
QVQLLESGGGLVQAGGSLRLTCAASGSIFFYYAMAWYRQAPGKEMEFVAGITYSGGITYYADSVKGRFTISRDNEKNTVYLQMNSLKPEDTAVYYCDYGGGVYQYGYWGQGTLVTVSS | low polyreactivity
QVQLLESGGGLVQAGGSLRLTCAASGSIFVIYAMGWYRQAPGKVRELVAAIDSSDGSTYYADSVKGRFTISRDNAKNTVYLQMNSLKPEDTAVYYCAARRLYWGQGTQVTVSS | high polyreactivity
QVQLLESGGGLVQAGGSLRLTSPASVRISQIYAMGWYIQAPGTERVLVARITSTDSTYYADSVKGRFTISRDNAKNTVYLQMNSLKPEDTAVYYCAASWWSPYDYWGQGTQVTVSS | low polyreactivity
QVQLLESGGGLVQAGGSLSLSCMASGSILGDRMSWYRQAPGKEHELVATIYDGGITYYADSMKGRFTISRDNAKNTVYLQMNSLRPEDTAVYYCGASFEGYRYHVYCGQGTQVTVSS | low polyreactivity
QVQLLESGGGLVQAGRSLRLSCAASGNTFDEYVKGWYRQAPGKESELDASIDWSGGGTYYADSVKGRFTISRDNAKNTVYLQMNSLKPEDTAVFYCNADYFDYSRTRYDYWGQGTQVNVSS | low polyreactivity
QVQLLESGGGLVQAGRSLRLSCAASGRIFRYYAMGWYRQAPGKERELVAAISYSTGGTSTYADSVKGRFTISRDNAKTTVYLQMNSLKPEDTAVYYCAVRRQYRRAYSFSQSRYDYWGQGTQVTVSS | high polyreactivity
QVQLLESGGGLVQPGGILRLSCAASGSTFVRYAMGWYRQAPGKERELVAAISYRGGSTYYADSVKGLFTISRDNANNSVYLELYSLKPEDTAVYYCAAESRHVEGEYWGQGTQVTVSS | high polyreactivity
QVQLLESGGGLVQPGGSLRLSCAASGSIFDGYAMVWYRQAPGKERELVAAISSSGGSTYYADSVKGRYTISRDTAKNTVYLQMNSLQREDSAVYYCAARFPWRGGVKYSYYFQHDYWGQGTQVTVSS | high polyreactivity
QVQLLESGGGLVQSGGSLRLTCAASGFTFRGYAMGWYRQAPGKERELVAAISWNGGRTYADSVKGRFTITRDNAKYTVYLQMNSLKPEDTAVYYCNAVKFGATAYDYWGQGTQVTVSS | high polyreactivity
QVQLLESGGRLVQAGRSLRLSCAASGRTFGPYAMGWYRQAPGKEREFVAAISSRGGRTYYADSVKGRFTISRDNAKNTVYLQLNSLKPEDTAVYYCAAEYNYSNKYLYLFLQMDYWGQGSQVTVSS | low polyreactivity
QVQLLESGVGLVQAGGSLRLSCAASGFSFGAYTLGWYRQAPRKERELVAAIRGSGGSTYYADSVKGRFTISRDNAKNTVYFQINSLKPDDTAVYYCAKTLTYGFRRYDYWGQGTQVTVSS | high polyreactivity
QVQLLESGVGLVQAGGSLRLSCAASGSILYINALGWSRPAPGKARELVAAITYSGGSTYYADSVKGRFTISRDNAKKPVYLQMNSLKPEDTAVYYCAADAVVAGRYDGHAYWGQGTQVTVSS | low polyreactivity
QVQLLESGVGLVQEGGSLRLSCPASGRIFGSKAMGWYRQAPGKERELVAAITRGGSTNYADSVEGRFTISRDNAKNTVYLQMNSLKPEYTAVYYCAVRWYRKYNYWGQGTLVTVSS | high polyreactivity
QVQLLESRGGLVQAGGSLRLSCAASGRNFGRYTMGWYRQAPGKERELVAAISARGGSTYYADSVKGRFTISRDNAKNTVYLQMNSLKPEDTAVYYCNTVRVHGFPIDRIYDYWGQGTQVTVSS | high polyreactivity
QVQLLETGGGLVQAGGSLRLSCAASGNTIIRYAMGWYRQAPGTERELVAAISYSGGRSYYADSVKGRFTISRDNAKYTVYLLMNSLKPEDTEVYYCIAASRYGGDYWGQVTQVTVSS | low polyreactivity
QVQLPESGGGLVQAGGSLRLICAASGYISTFSSEMGWYRQAPGKERELVASIAPGCTTSYADSVKGRFTISRDNAKNTVYLQMNSLKPEDTAVYYCGVDYTVPASFGYWGQGTQVTVSS | high polyreactivity
QVQLQDSGGGLVQAGGSLRLNCATSGTIFVLWYMGCYRQAPGKERELVATINDGANTYYADSVKGRFTINRDNANSTVYLQMNSLQPEDSAVYYCSVYAIIVWGLGYWGQGTQVTVSS | high polyreactivity
